The target of this assay is Right-Handed Coiled Coil-Nanotube (RHCC-NT) (Staphylothermus marinus). Briefly: crystal structure; RHCC-NT incubated with o-carborane at 50 °C for 1 week, 10 mg/mL in 10 mM TRIS pH 7.5, 154 mM NaCl; vapour diffusion; data at 100 K; 2.2 Å; molecular replacement with PDB 1YBK.

The stoichiometry N is a count of units in the complex or per binding partner. For “Right-Handed Coiled Coil-Nanotube (RHCC-NT) (domain or fragment)”, the stoichiometry N came out at 4.

(Values after article PMC8324832.)
